Results: patent US10023629B2 (priority 2012, dated 2018)
“Also recorded” adds a separate entry of the source.

How the values were obtained:
H5N1 NIBRG-23 = assay: microbe, parasite or virus in culture; type: cell-based, H5N1 influenza virus in MDCK cells; conditions: Influenza A virus, H5N1, read-out: NIBRG-23, plaque size reduction
NIBRG-14ma virus = tested on: NIBRG-14ma virus; design: species or system BALB/c mice; conditions: mouse, in vivo
H5N1 NIBRG-14 = assay: microbe, parasite or virus in culture; type: cell-based, H5N1 influenza virus in MDCK cells
[1] = target: N1rec, tetrameric recombinant N1 Neuraminidase (Influenza A virus, UniProt Q30CC2); assay: biochemical; design: species or system H5N1 A/crested eagle/Belgium/09/2004
[2] = target: N1rec, tetrameric recombinant N1 Neuraminidase (soluble recombinant H5N1 NA derived from A/crested e (influenza A virus A/crested eagle/Belgium/01/2004 (H5N1))); assay: cell-based or functional assay
[3] = target: N1rec, tetrameric recombinant N1 Neuraminidase (soluble recombinant H5N1 NA derived from A/crested e (influenza A virus A/crested eagle/Belgium/01/2004 (H5N1))); assay: SPR (Biacore 3000), N1rec immobilized on CM5 chip, VHHm injected
N1rec = type: binding, H5N1 A/crested eagle/Belgium/09/2004
[4] = target: N1rec, tetrameric recombinant N1 Neuraminidase (soluble recombinant H5N1 NA derived from A/crested e (influenza A virus A/crested eagle/Belgium/01/2004 (H5N1))); assay: SPR, immobilized N1rec

Molecule: CCOC(=O)C1=C[C@@H](OC(CC)CC)[C@H](NC(C)=O)[C@@H](N)C1 [Oseltamivir]
- IC50 (H5N1 NIBRG-23): 73000 nM
- morbidity (body weight) (NIBRG-14ma virus): significant body weight loss
- protection against lethality (NIBRG-14ma virus): protected the mice against lethality; also recorded: full protection
- viral RNA in lung homogenates (RT-qPCR Ct) (NIBRG-14ma virus): only slightly different
- survival (NIBRG-14ma virus; po, 1 mg/kg/day): 100%
- IC50 (H5N1 NIBRG-14; Influenza A virus, H5N1, read-out: NIBRG-14, plaque size reduction): 15000 nM
- IC50 [1]: 586 nM

B1: N1-5-VHHm (VHH)
VHH: QVQLQESGGGLVQPGGSLRLSCAASGSDISIYEMGWYRQAPGKQRELVAAITSGGTTNYADSVKGRFTISRDNAKNTVYLQMNSLKPEDTAVYYCNAADFDLWEYDYWGQGTQVTVSS
- IC50 of inhibition of the catalytic N1 NA activity (MUNANA, 160 ng N1rec) [2]: 375 nM
- Kd [3]: 4.7 nM
- koff [3]: 0.00058 s⁻¹
- kon [3]: 120000 M⁻¹ s⁻¹

B2: N1-7-VHHm: binding but non-inhibitory N1-VHHm control (protein)
VHH: QVQLQESGGGLVQPGGSLRLSCAASGSRFSRYDMGWYRQAPGKQRELVATITSGGITNYADSVKGRFTISRDNTKNTVYLQMNSLKPEDTAVYYCNAEDPLRAIQLGSLTYEYWGQGTQVTVSSHHHHHH
- Koff (N1rec): 2.8E^−3 s^−1
- Kon (N1rec): 4.4E^+4 M^−1 · s^−1
- binding to N1rec after prior binding of another N1-VHHm (N1rec): not affected
- fold lower affinity KD than N1-5-VHHm and N1-3-VHHm, respectively (N1rec): 10- to 100 fold
- Kd (N1rec; read-out: KKD): 63 nM
- size and number of NIBRG-14 plaques (H5N1 NIBRG-14): did not affect the size or number

B3: N1-3-VHHm (VHH)
VHH: QVQLQESGGGLVQPGGSLRLSCAASGSIFSIHDMGWYRRAPGKQRELVAAITSGGSTNYADSVKGRFTISRDNAKNTVSLQMNSLKPEDTAVYYCNAWGEDYGLGEYDSWGQGTQVTVSS
- IC50 of inhibition of the catalytic N1 NA activity (MUNANA, 160 ng N1rec) [2]: 425 nM
- Kd [3]: 0.37 nM
- koff [3]: 0.0013 s⁻¹
- kon [3]: 3.6e+06 M⁻¹ s⁻¹

B4: N1-7-VHHm (VHH)
VHH: QVQLQESGGGLVQPGGSLRLSCAASGSRFSRYDMGWYRQAPGKQRELVATITSGGITNYADSVKGRFTISRDNTKNTVYLQMNSLKPEDTAVYYCNAEDPLRAIQLGSLTYEYWGQGTQVTVSS
- Kd [3]: 63 nM
- koff [3]: 0.0028 s⁻¹
- kon [3]: 44000 M⁻¹ s⁻¹
- fold lower affinity (KD) than N1-3-VHHm [4]: 100 fold
- fold lower affinity (KD) than N1-5-VHHm [4]: 10 fold
